Reference: US20210130452A1 (Merck KGaA, published 2021)
Numbering of substitutions follows the chain as printed.

B1: 02A08 (VHH)
VHH: EVQLVESGGGVVQPGGSLRLSCADSERSFSFNAMGWFRQAPGKEREFVAAISATGDDTYYADSVKGRFAISRDTARNTVYLQMNSLKPEDTAVYYCGARVNFDGTVSYTNDYAYWGQGTQVTVSS
notes: Class 2 Nanobody (anti-IL-17A and IL-17A/F); not shown: c-myc, His6 tag
B2: 01A01 (VHH)
VHH: EVQLVESGGGLVQAGGSLRLSCAASGFTFDDYDIGWFRQAPGKEREGVSCFTSSDGRTFYADSVKGRFTVSADNAKNTVYLQMNSLEPEDTAVYFCAAVNTFDESAYAAFACYDVVRWGQGTQVTVSS
notes: Class 4 Nanobody (cross-reactive: anti-IL-17A, IL-17F and IL-17A/F); not shown: c-myc, His6 tag
B3: 03C07 (VHH)
VHH: EVQLVESGGGLVQAGGSLRLSCAASGFTFDDYAIGWFRQAPGKEREAVSCFSSSDGSIYYADSVKGRFTISSDNAKNTVYLQMNSLKPEDTAVYYCAGGGGSYYYTQLNYCYDMDYWGKGTQVTVSS
notes: as for B1
B4: 11A06 (VHH)
VHH: EVQLVESGGGLVQPGESLRLSCKASGFSLDYYALGWFRQAPGKEREGISCITSSDASAYYTDSVKGRFTISRDNSKNTVYLQMNSLKTEDTAIYYCAAALLTCSSYYDAYTYWGQGTQVTVSS
notes: as for B1
B5: 04B09 (VHH)
VHH: EVQLVESGGGLVQPGGSLRLSCAASGFTLGYYAIGWFRQAPGKEREGVSCDSSSDGDTYYANSVKGRFTISTDNGKNTVYLQMNSLKPEDTAVYYCATCTDWNYDYWGQGTQVTVSS
notes: as for B1
B6: 09G10 (VHH)
VHH: EVQLVESGGGLVQAGGSLRLSCAASDSVFTAKAVGWYRQPPGLQREWVAIITSGGKTNYADSSVKGRFTVSVDKVKNTVTLQMNSLKPEDTAVYYCYAQWMGRDYWGQGTQVTVSS
notes: as for B1
B7: 06E11 (VHH)
VHH: EVQLVESGGGLVQAGGSLRLSCPVSGRAFSRGRLGWFRQAPGKEREFVAVAHWSGAITSYADSVKGRFTFSRDNAKNTMNLQMNSLKPEDTAVYYCAADSETSGNWVYWGQGTQVTVSS
notes: Class 3
B8: 13E05 (VHH)
VHH: EVQLVESGGGKVQAGDSLTLSCVASGGTFSNYAAWFRQAPGKDRRELVVSIFRTGSITYTADSVKGRFTASRVNTKNTVYLQMNSLKPEDTAVYYCASAYNPGVGYDYWGQGTQVTVSS
notes: as for B2
B9: 13B05 (VHH)
VHH: EVQLVESGGRLVQAGGSLRLSCAASGRTFTSYPMGWFRQAPGKEREFVAAISMSGDDTAYTDFVRGRFTISRDDARNTVYLHMTSLKPEDTAVYYCAARTSYDGTYDYIDDYSYWGQGTQVTVSS
notes: as for B2
B10: 07B11 (VHH)
VHH: EVQLVESGGGLVQAGGSLRLSCVASGRAFSSYVMGWFRQAPGMEREFVALIRWSDGITGYVDSVKGRFTISRDNAKNTVYLQMNSLKPEDTAVYYCAAAVRPGDYDYWGQGTQVTVSS
notes: Class 3
B11: 04G01 (VHH)
VHH: EVQLVESGGGLVQAGGSQRLSCTASGTIVNIHVMGWYRQAPGKQRELVALIFSGGSADYADSVKGRFTISRDNAKNTVYLEMNSLKAEDTAVYYCAAEIGYYSGGTYYSSEAHWGQGTQVTVSS
notes: Class 2 Nanobody (anti-IL-17A and IL-17A/F); also called IL17MS04G01; not shown: c-myc, His6 tag
B12: 07B09 (VHH)
VHH: EVQLVESGGGLVQAGGSLRLSCGASGGTFSSYATGWFRQAPGKEREFVAVLRWSDGHTAYADSVKGRFTISRDGAKNTMYLQMSSLKPEDTAIYYCTTATRPGEWDYWGQGTQVTVSS
notes: Class 3
B13: 08H01 (VHH)
VHH: B12 VHH with G56S, K65E, M79V, A99G, D106H
notes: Class 3
B14: 24G10 (VHH)
VHH: B12 VHH with S25A, L51F, G56S, M79L
notes: Class 3
B15: 24B08 (VHH)
VHH: EVQLVESGGGLVQAGGSLRLSCAVSGGTFSTYKMGWFRQAPGKEREIVARISTNGPTAYAEFVKGRFTVSRENTKNTVYLQMNSLNIEDTAVYYCAAGYDSLFAGYDYWGQGTQVTVSS
notes: Class 3
B16: 11C08 (VHH)
VHH: EVQLVESGGGLVQAGGSLRLSCAASGVIFRLNAMGWYRAAPGKQRELVAIIVNGGSTNYADSVKGRFTISRDSAKNAVYLQMNSLKPEDTAVYYCYYNIPGDVYWGQGTQVTVSS
notes: as for B2

Tests used:
human IL-17A [1] = target: T1, human IL-17A (human, UniProt Q16552 24-155, biotinylated with Sulfo-NHS-LC-Biotin in the AlphaScreen assays only); experiment: cell-based or functional assay
T1 sequence (Q16552 other isoform, or with tags, fused parts or gaps): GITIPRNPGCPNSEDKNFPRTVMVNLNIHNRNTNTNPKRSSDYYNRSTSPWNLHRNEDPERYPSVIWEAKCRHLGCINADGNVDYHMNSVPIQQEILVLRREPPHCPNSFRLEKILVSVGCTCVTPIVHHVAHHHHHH

human IL-17A [2] = target: T1, human IL-17A; experiment: AlphaScreen competition, hIL-17A - IL-17RA-Fc;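 also: receptor Fc-fusion plus Acceptor and streptavidin Donor beads incubated with the mixture for 1 h at room temperature before reading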
Description: (§1) To this mixture, the IL-17RA or IL-17RC Fc-fusions, Acceptor beads and the streptavidin Donor beads were added and further incubated for 1 hour at RT.

human IL-17A [3] = target: T1, human IL-17A; experiment: AlphaScreen competition, hIL-17A - IL-17RC-Fc;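 also: Read-out after 1 h at room temperature with the receptor Fc-fusion, Acceptor beads and streptavidin-coated Donor beads present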
Description: as §1

human IL-17A [4] = target: T1, human IL-17A; experiment: SPR Biacore, hIL-17A on chip; purified protein
[5] = target: T2, human IL-17A/F heterodimer (human, UniProt Q16552 24-155; Q96PD4 31-163, limits assumed, biotinylated with Sulfo-NHS-LC-Biotin in the AlphaScreen assays only); experiment: cell-based or functional assay
T2 sequence (Q16552 24-155 limits assumed, chain 1 of 2, one chain of several): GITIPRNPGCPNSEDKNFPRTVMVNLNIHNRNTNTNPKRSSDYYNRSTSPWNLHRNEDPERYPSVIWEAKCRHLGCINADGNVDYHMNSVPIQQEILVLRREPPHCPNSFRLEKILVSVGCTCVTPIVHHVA

[6] = target: T2, human IL-17A/F heterodimer; experiment: AlphaScreen competition, hIL-17A/F - IL-17RA-Fc
Description: as §1

[7] = target: T2, human IL-17A/F heterodimer; experiment: AlphaScreen competition, hIL-17A/F - IL-17RC-Fc
Description: as §1

[8] = target: T2, human IL-17A/F heterodimer; experiment: SPR Biacore, hIL-17A/F on chip; purified protein
human IL-17F = target: T3, human IL-17F (human, UniProt Q96PD4 31-163, biotinylated with Sulfo-NHS-LC-Biotin in the AlphaScreen assays only); experiment: SPR Biacore, hIL-17F on chip; periplasmic extract (*); NB = no binding
T3 construct: also called hIL-17F; recombinant human IL-17F
T3 sequence: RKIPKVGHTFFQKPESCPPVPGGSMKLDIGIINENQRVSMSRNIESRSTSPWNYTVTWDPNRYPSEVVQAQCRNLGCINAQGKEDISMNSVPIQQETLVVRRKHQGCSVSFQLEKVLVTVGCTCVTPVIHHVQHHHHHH
Description: Off-rates of the periplasmic extracts containing anti-IL-17 Nanobodies were measured by Surface Plasmon Resonance (SPR) using a Biacore T100 instrument. […] Periplasmic extracts containing IL-17 neutralizing Nanobodies were injected for 2 minutes at a flow rate of 45 μl/min to allow binding to chip-bound antigen. Next, binding buffer without periplasmic extracts was sent over the chip at the same flow rate to allow spontaneous dissociation of bound Nanobody. From the sensorgrams obtained for the different periplasmic extracts koff-values (k₄) were calculated.

guinea pig IL-17A = guinea pig IL-17A (guinea pig); experiment: ELISA, coated IL-17A
Description: (§2) Binding of a selected panel of anti-IL-17 Nanobodies to IL-17 of other species was assessed using a binding ELISA. […] HRP (horseradish peroxidase) conjugated anti-myc (Serotec, MCA 2200P) was used for detection using esTMB as substrate.

mouse IL-17F = target: T4, mouse IL-17F (mouse, UniProt Q7TNI7 29-161); experiment: ELISA, coated IL-17F;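 also: binding ELISA on coated antigen from various species, with bound Nanobodies revealed by an HRP-linked anti-myc antibody and esTMB substrate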
T4 sequence (looked up): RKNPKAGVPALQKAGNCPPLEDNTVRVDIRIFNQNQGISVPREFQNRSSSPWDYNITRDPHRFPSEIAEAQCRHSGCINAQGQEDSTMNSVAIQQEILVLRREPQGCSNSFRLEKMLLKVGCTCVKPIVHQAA
Description: as §2

rat IL-17F = target: T5, rat IL-17F (rat, UniProt Q5BJ95 29-161); experiment: ELISA, coated IL-17F;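 also: binding ELISA on coated antigen from various species, with bound Nanobodies revealed by an HRP-linked anti-myc antibody and esTMB substrate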
T5 sequence (looked up): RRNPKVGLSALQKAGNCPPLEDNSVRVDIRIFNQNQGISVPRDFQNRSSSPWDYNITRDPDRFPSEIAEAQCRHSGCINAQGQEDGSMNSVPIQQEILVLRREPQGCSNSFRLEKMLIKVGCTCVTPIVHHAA
Description: as §2

human IL-17A [9] = target: T6, human IL-17A (human, UniProt Q16552 24-155); experiment: ELISA, coated IL-17A
T6 construct: secreted form (GenBank U32659) expressed in Hek293 with C-terminal 6-His; also called hIL-17A; IL-17A-6HIS
T6 sequence (Q16552 other isoform, or with tags, fused parts or gaps): as the sequence (Q16552 other isoform, or with tags, fused parts or gaps) above
Description: as §2

marmoset IL-17A = target: T7, marmoset IL-17A (marmoset, IL-17A is a disulfide-linked homodimer. One chain is given.); experiment: ELISA, coated IL-17A
T7 chain: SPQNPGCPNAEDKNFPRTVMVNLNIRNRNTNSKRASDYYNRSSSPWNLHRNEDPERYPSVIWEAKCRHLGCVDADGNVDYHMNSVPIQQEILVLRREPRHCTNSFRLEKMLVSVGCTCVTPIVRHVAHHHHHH
Description: as §2

Row | Binder | IL-17A-induced IL-6 production in HT-1080 cells, Emax (human IL-17A [1]) | IL-17A-induced IL-6 production in HT-1080 cells, IC50 (human IL-17A [1]) | IC50 (human IL-17A [2]) | IC50 (human IL-17A [3]) | koff (human IL-17A [4]) | OD (guinea pig IL-17A) | OD (mouse IL-17F) | OD (rat IL-17F) | further results
1 | B1 | 103% | 8.8 nM | 0.126 nM | 0.419 nM | 0.00042 s⁻¹ | – | – | – | –
2 | B2 | 104% | 2.7 nM | 0.051 nM | 0.211 nM | 8.5e-05 s⁻¹ | – | – | – | –
3 | B3 | 101% | 4.2 nM | 0.084 nM | 0.371 nM | 0.0002 s⁻¹ | – | – | – | –
4 | B4 | 98.5% | 4 nM | 0.081 nM | 0.461 nM | 0.00016 s⁻¹ | – | – | – | IL-17A/F-induced IL-6 production in HT-1080 cells, Emax [5]: 106%; IL-17A/F-induced IL-6 production in HT-1080 cells, IC50 [5]: 28.1 nM; IC50 [6]: 0.14 nM; IC50 [7]: 0.039 nM; koff [8]: 3.8e-05 s⁻¹
5 | B5 | – | – | – | – | – | – | – | – | binding result (human IL-17F): no binding
6 | B6 | 99% | 4 nM | 0.046 nM | 0.323 nM | 0.00012 s⁻¹ | – | – | – | IL-17A/F-induced IL-6 production in HT-1080 cells, Emax [5]: 108%; IL-17A/F-induced IL-6 production in HT-1080 cells, IC50 [5]: 22.2 nM; IC50 [6]: 0.101 nM; IC50 [7]: 0.12 nM; koff [8]: 0.00013 s⁻¹; binding result (human IL-17F): no binding
7 | B7 | – | – | – | – | – | 0.006 OD | 0.0215 OD | 0.0085 OD | –
8 | B8 | 101% | 12.3 nM | 0.159 nM | 1.09 nM | 0.0016 s⁻¹ | – | – | – | –
9 | B9 | 104% | 14 nM | 0.118 nM | 0.249 nM | 0.0003 s⁻¹ | – | – | – | –
10 | B10 | – | – | – | – | – | 0.007 OD | -0.0005 OD | -0.0105 OD | OD (human IL-17A [9]): 0.03 OD
11 | B11 | 113% | 5.4 nM | 0.014 nM | 0.217 nM | 0.00018 s⁻¹ | – | – | – | IL-17A/F-induced IL-6 production in HT-1080 cells, Emax [5]: 104%; IL-17A/F-induced IL-6 production in HT-1080 cells, IC50 [5]: 34.7 nM; IC50 [6]: 0.067 nM; IC50 [7]: 0.039 nM; koff [8]: 0.00023 s⁻¹; binding result (human IL-17F): no binding
12 | B12 | – | – | – | – | – | 0.009 OD | -0.0015 OD | 0.0025 OD | OD (human IL-17A [9]): 0.005 OD; OD (marmoset IL-17A): 0.005 OD
13 | B13 | – | – | – | – | – | 0.007 OD | -0.0005 OD | 0.0045 OD | –
14 | B14 | – | – | – | – | – | 0.008 OD | -0.0005 OD | 0.0025 OD | OD (human IL-17A [9]): 0.009 OD
15 | B15 | – | – | – | – | – | 0.012 OD | -0.0015 OD | 0.0035 OD | OD (human IL-17A [9]): 0.103 OD; OD (marmoset IL-17A): 0.129 OD
16 | B16 | 73% | 130 nM | 2.12 nM | 4.8 nM | 0.0079 s⁻¹ | – | – | – | –
